Reference: publication PMC6232856

Biological target: rabbit skeletal muscle actin, polymerised (F-actin) (rabbit) (UniProt P68135)
Assay: co-sedimentation

human espin 3A with the USH1M variant p.790_795delRRDLLR, N-terminally 6xHis-tagged (natural protein), sequence (B1AK53 whole entry, stated change not applied): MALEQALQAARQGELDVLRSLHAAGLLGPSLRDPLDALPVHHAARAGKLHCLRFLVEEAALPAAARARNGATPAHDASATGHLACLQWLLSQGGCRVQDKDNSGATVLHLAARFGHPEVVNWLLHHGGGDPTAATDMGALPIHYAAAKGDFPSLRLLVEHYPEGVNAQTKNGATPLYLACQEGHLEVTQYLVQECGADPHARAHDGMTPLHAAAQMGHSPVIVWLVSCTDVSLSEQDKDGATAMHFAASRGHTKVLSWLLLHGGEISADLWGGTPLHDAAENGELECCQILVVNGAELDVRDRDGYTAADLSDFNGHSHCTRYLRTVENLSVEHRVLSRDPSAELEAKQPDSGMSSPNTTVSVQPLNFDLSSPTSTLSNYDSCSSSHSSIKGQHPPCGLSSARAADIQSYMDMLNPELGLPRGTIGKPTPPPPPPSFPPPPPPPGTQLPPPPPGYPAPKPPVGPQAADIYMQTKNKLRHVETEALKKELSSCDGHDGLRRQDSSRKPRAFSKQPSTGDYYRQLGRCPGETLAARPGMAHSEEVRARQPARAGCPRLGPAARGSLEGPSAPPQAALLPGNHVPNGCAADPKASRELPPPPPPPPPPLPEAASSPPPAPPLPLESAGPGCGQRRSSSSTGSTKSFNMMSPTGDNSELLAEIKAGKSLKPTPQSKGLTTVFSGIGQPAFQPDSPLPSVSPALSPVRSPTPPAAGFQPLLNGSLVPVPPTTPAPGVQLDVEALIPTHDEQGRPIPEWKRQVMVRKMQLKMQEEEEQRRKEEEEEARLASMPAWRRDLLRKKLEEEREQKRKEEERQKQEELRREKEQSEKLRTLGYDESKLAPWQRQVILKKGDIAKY

Row | percent of espin cosedimented with F-actin [%] | Substance
1 | 15 | human espin 3A with the USH1M variant p.790_795delRRDLLR, N-terminally 6xHis-tagged (natural protein)
2 | 45 | human espin 3A, wild type, N-terminally 6xHis-tagged (natural protein)
